In PMC4357707 (Nucleic Acids Research, 2015):
Numbering of substitutions follows the chain as printed.

Key:
HEN1 wt = target: T1, HEN1 wt (Arabidopsis thaliana, UniProt Q9C5Q8 1-942); assay: EMSA
T1 sequence: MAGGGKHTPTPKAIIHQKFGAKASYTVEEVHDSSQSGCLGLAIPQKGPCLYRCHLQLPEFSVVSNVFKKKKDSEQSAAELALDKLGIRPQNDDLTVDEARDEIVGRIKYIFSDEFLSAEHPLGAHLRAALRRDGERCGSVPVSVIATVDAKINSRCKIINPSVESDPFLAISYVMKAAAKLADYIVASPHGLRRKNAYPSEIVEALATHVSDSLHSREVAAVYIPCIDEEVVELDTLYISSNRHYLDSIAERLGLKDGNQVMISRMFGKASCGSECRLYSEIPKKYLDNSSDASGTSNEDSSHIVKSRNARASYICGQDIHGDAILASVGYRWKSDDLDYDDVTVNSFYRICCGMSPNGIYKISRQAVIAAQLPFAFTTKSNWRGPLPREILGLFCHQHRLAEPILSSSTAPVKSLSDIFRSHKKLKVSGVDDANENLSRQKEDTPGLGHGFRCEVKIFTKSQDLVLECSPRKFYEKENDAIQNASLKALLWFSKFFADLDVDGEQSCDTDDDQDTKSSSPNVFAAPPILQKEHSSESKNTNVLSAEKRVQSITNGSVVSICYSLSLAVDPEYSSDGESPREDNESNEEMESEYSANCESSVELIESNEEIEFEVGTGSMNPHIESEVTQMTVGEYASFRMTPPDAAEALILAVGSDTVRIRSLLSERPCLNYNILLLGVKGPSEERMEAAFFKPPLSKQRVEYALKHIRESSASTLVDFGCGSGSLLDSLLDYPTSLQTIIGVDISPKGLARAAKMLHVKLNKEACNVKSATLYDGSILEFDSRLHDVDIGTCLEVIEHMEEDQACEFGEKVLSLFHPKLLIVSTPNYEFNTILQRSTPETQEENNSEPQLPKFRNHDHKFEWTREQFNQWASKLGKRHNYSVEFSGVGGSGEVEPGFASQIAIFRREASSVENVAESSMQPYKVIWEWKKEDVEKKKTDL

HEN1-K22A = target: T2, HEN1-K22A (Arabidopsis thaliana, UniProt Q9C5Q8 1-942, K22A); assay: EMSA
T2 sequence: T1 sequence with K22A

B1: miR173/miR173* (dsRNA)
RNA 1: UUCGCUUGCAGAGAGAAAUCAC
RNA 2: GAUUCUCUGUGUAAGCGAAAG
Which results are given for B1?
Kd (HEN1 wt): 0.32 ± 0.03 nM; binding result (HEN1-K22A): binds
